From patent US7399466B2, “Method and compositions for promoting osteogenesis” (Enobia Pharma Inc., priority 2000, dated 2008)
Substitutions are numbered along the chain they refer to. Where “and” joins values, the source holds several entries; their conditions need not be identical. Equal entries are not always repeated. Where two headings read alike, the source gives them in different places. Bridges are numbered along the chain shown (N, C = ends). Where no end group is shown, it is not given here. [ ]: non-standard residue; d: D form. Gla = N[C@@H](CC(C(=O)O)C(=O)O)C(=O)O

How the values were obtained:
secPHEX = target: T1, secPHEX (Homo sapiens, UniProt P78562); assay: secPHEX enzymatic assay: inhibition of PTHrP107-139 hydrolysis (RP-HPLC); type: biochemical
T1 construct: made in house; host or cells: LLC-PK1 cells (porcine kidney; ATCC No. CRL-1392), stably transfected; purified from culture medium
T1 sequence (P78562 46-749): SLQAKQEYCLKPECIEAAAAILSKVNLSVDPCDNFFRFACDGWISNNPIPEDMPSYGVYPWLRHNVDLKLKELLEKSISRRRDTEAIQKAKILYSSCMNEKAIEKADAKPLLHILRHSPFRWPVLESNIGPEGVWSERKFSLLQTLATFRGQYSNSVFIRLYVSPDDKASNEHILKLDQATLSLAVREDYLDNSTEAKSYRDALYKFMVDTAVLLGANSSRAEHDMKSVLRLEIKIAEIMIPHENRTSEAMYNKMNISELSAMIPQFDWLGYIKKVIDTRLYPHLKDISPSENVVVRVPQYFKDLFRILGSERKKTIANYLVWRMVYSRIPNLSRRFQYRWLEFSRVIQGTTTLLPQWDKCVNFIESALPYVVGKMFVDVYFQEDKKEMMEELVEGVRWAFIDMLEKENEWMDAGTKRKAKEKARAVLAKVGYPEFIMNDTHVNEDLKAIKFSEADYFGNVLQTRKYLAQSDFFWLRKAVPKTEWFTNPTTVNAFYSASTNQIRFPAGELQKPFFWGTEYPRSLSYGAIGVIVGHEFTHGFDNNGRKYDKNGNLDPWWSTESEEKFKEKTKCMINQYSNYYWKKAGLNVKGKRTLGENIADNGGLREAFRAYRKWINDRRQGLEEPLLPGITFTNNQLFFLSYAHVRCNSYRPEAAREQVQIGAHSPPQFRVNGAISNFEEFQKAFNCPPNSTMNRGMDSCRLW
Procedure: (§1) One μg of purified secPHEX or secPHEXE581V was incubated with 5 μg of peptide substrate for 30 min at 37° C. in a volume of 200 μl of 50 mM MES (2-(N-morpholino) ethanesulfonic acid) pH6.5, 150 mM NaCl. Peptide PTHrP107-139 (human origin and obtained from Bachem, Philadelphia, Pa., U.S.A. or Peninsula Laboratories, Belmont, Calif., U.S.A.), used as a substrate, was prepared as 1 μg/μl solutions also containing 1 μg/μl of the tripeptide Tyr-Gly-Gly. This latter peptide, which is not a PHEX substrate, was used as an internal standard. Peptide substrate AWLDSGV (Dr Gilles Lajoie, Waterloo Peptide Synthesis C2-360 University of Waterloo, Waterloo, ON Canada) (SEQ ID NO: 1) was digested with secPHEX in the same manner as described above for PTHrP107-139. To determine osteocalcin inhibitory potency on secPHEX activity, osteocalcin (Peptide Research Institute, Japan or E. coli-produced) was added to the reaction mixture to final concentrations varying from 10^−8 to 5×10^−4 M. To determine the effect of agents on the inhibitory activity of osteocalcin, the agents were added to a reaction mixture containing secPHEX, peptide substrate and 5×10^−6 M osteocalcin. […] Following the incubation period, hydrolysis was stopped by the addition of EDTA to a final concentration of 5 mM. The potentiating agent was identified when the intact substrate was determined to be present in a […] concentration than in the absence of the potentiating agent (see FIG. 6). Results were quantified by comparing, after normalization for the amounts of peptide Tyr-Gly-Gly present in the samples, the areas under the peaks of the substrate.
Identification and quantification of the enzymatic activity of secPHEX on the PTHrP107-139 peptide was performed by reverse phase high performance liquid chromatography (RP-HPLC) on a C18 μBondapak analytical column (Waters, Mississauga, ON, Canada) with a UV detector set at 214 nm. Peptides were resolved with a linear gradient of 5% B to 85% B in 45 min at the flow rate of 0.4 ml/min [mobile phase A=0.1% trifluoroacetic acid; mobile phase B=80% acetonitrile (CH3CN), 0.1% trifluoroacetic acid].

osteocalcin = target: T2, osteocalcin (Homo sapiens, UniProt P02818); assay: Effect of Ca2+ on the inhibitory action of osteocalcin on secPHEX; type: biochemical
T2 construct: The mature peptide is 49 amino acids long with 3 Gla residues and one difulfide bond; purchased Peptide Research Institute, Japan
T2 sequence (P02818 52-100): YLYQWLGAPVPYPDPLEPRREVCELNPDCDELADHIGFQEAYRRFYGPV
Procedure: One μg of purified secPHEX or secPHEXE581V was incubated with 5 μg of peptide substrate for 30 min at 37° C. in a volume of 200 μl of 50 mM MES (2-(N-morpholino) ethanesulfonic acid) pH6.5, 150 mM NaCl. Peptide PTHrP107-139 (human origin and obtained from Bachem, Philadelphia, Pa., U.S.A. or Peninsula Laboratories, Belmont, Calif., U.S.A.), used as a substrate, was prepared as 1 μg/μl solutions also containing 1 μg/μl of the tripeptide Tyr-Gly-Gly. This latter peptide, which is not a PHEX substrate, was used as an internal standard. Peptide substrate AWLDSGV (Dr Gilles Lajoie, Waterloo Peptide Synthesis C2-360 University of Waterloo, Waterloo, ON Canada) (SEQ ID NO: 1) was digested with secPHEX in the same manner as described above for PTHrP107-139. […] The potentiating agent was identified when the intact substrate was determined to be present in a […] concentration than in the absence of the potentiating agent (see FIG. 6). Results were quantified by comparing, after normalization for the amounts of peptide Tyr-Gly-Gly present in the samples, the areas under the peaks of the substrate.
(§2) Identification and quantification of the enzymatic activity of secPHEX on the PTHrP107-139 peptide was performed by reverse phase high performance liquid chromatography (RP-HPLC) on a C18 μBondapak analytical column (Waters, Mississauga, ON, Canada) with a UV detector set at 214 nm. […]

Hyp male mice [1] = assay: secPHEX injection to Hyp mice, daily for 14 days: serum alkaline phosphatase and phosphate; type: in vivo, mouse
Procedure: Purified secPHEX solubilized in 1 mM phosphate pH 7.4, 150 mM NaCl, was administered intravenously daily for 4 or 14 consecutive days through the subclavian vein Hyp males (12 weeks of age). The same number of aged-matched Hyp male mice were treated with vehicle only as controls.
In a similar experiment, Hyp male mice where injected with daily doses of 1 mg/kg secPHEX for 14 days.

[2] = Precipitation of secPHEX in low-salt solutions; type: physicochemical; conditions: NaCl added to reaction mixture
Procedure: SecPHEX activity was assayed in 50 mM MES pH 6.5 containing 150 mM NaCl (26). Sodium chloride was added to the reaction mixture because we observed that secPHEX precipitated out in solutions containing less than 50 mM salt.

Hyp male mice [3] = assay: secPHEX injection to Hyp mice, daily for 4 days: serum phosphate; type: in vivo, mouse; set-up: serum phosphate, Day 0 / serum phosphate, Day 4: unit not given here; conditions: for serum phosphate, Day 0 / serum phosphate, Day 4: individual Hyp mice; for serum phosphate, Day 0: baseline before treatment
Procedure: Purified secPHEX solubilized in 1 mM phosphate pH 7.4, 150 mM NaCl, was administered intravenously daily for 4 or 14 consecutive days through the subclavian vein Hyp males (12 weeks of age). The same number of aged-matched Hyp male mice were treated with vehicle only as controls. […]

PTHrP107-139 = assay: secPHEX activity: digestion of PTHrP107-139 (RP-HPLC, MALDI-Tof); type: biochemical, human
Procedure: as §1, §2
The pH optimum for the reaction was determined by progressively increasing the pH of the MES buffer from 5.0 to 7.0 or of a Tris buffer (50 mM Tris.HCl, 150 mM NaCl) from 7.0 to 9.0.

[4] = PTHrP107-139 substrate, inhibitor varied from 0.1 to 50 mM, read-out: concentration giving 50% inhibition of secPHEX activity
[5] = 1 mM added to the reaction mixture
[6] = 1 mg/kg daily, individual Hyp mice

For “osteocalcin: non-collagenous bone protein, mature peptide 49 amino acids with 3 Gla residues; extracted from human bones (YLYQWLGAPVPYPDPL[Gla]PRR[Gla]VC[Gla]LNPDCDELADHIGFQEAYRRFYGPV; disulfide 23-29 (inferred))”, the “inhibition of secPHEX activity” value (secPHEX; 5×10^−6 M osteocalcin) was “approximately 75%”, the “degradation by secPHEX” value (secPHEX; data not shown) was “not degraded” and the IC50 (secPHEX; secPHEX-mediated PTHrP107-139 hydrolysis, FIG. 6A, read-out: concentration giving fifty percent inhibition of secPHEX activity) was 0.0036 mM.

`O=P(O)(O)OP(=O)(O)O` [pyrophosphate] gave an IC50 (secPHEX; [4]) of 2.5 mM.

With `c1cnc2c(c1)ccc1cccnc12` [1,10-phenanthroline] the “inhibition of secPHEX activity” value (secPHEX; [5]) was “fully inhibited”.

For “E. coli-produced osteocalcin: human osteocalcin without Gla residues made in E. coli (pGEX-OST vector) (YLYQWLGAPVPYPDPLEPRREVCELNPDCDELADHIGFQEAYRRFYGPV)”, the “inhibitory potency on secPHEX compared to osteocalcin extracted from bones” value (secPHEX; FIG. 7A) was “similar” and the “modulation of inhibitory activity on secPHEX by Ca2+” value (osteocalcin; FIG. 7B) was “not modulated”.

With `O=C(O)CN(CCN(CC(=O)O)CC(=O)O)CC(=O)O` [EDTA] the “inhibition of secPHEX activity” value (secPHEX; [5]) was “fully inhibited”.

In the case of `[Ca+2]` [Ca^2+, CaCl2, reference compound], the “effect on secPHEX activity in the absence of osteocalcin” value (secPHEX; data not shown) is reported as “no effect” and the EC50 (osteocalcin; CaCl2 varied from 10^−6 to 10^−2 M, constant osteocalcin 2×10^−6M (FIG. 6B), read-out: Ca2+ concentration necessary to reduce the inhibitory potency of osteocalcin by 50%) is reported as 5 mM.

`O=P(O)(O)O` [Pi] showed an IC50 (secPHEX; [4]) of 3.5 mM.

B1: secPHEX: soluble, secreted form of recombinant human PHEX zinc metallopeptidase produced in LLC-PK1 cells (protein, UniProt P78562 42-641, looked up)
extracellular domain: QGLLSLQAKQEYCLKPECIEAAAAILSKVNLSVDPCDNFFRFACDGWISNNPIPEDMPSYGVYPWLRHNVDLKLKELLEKSISRRRDTEAIQKAKILYSSCMNEKAIEKADAKPLLHILRHSPFRWPVLESNIGPEGVWSERKFSLLQTLATFRGQYSNSVFIRLYVSPDDKASNEHILKLDQATLSLAVREDYLDNSTEAKSYRDALYKFMVDTAVLLGANSSRAEHDMKSVLRLEIKIAEIMIPHENRTSEAMYNKMNISELSAMIPQFDWLGYIKKVIDTRLYPHLKDISPSENVVVRVPQYFKDLFRILGSERKKTIANYLVWRMVYSRIPNLSRRFQYRWLEFSRVIQGTTTLLPQWDKCVNFIESALPYVVGKMFVDVYFQEDKKEMMEELVEGVRWAFIDMLEKENEWMDAGTKRKAKEKARAVLAKVGYPEFIMNDTHVNEDLKAIKFSEADYFGNVLQTRKYLAQSDFFWLRKAVPKTEWFTNPTTVNAFYSASTNQIRFPAGELQKPFFWGTEYPRSLSYGAIGVIVGHEFTHGFDNNGRKYDKNGNLDPWWSTESEEKFKEKTKCMINQYSNYYWKKAGLNVKGKRTLG
modifications: extracellular domain
notes: soluble, secreted form of recombinant human PHEX zinc metallopeptidase produced in LLC-PK1 cells
For B1, the “serum phosphate levels at the 7th and 14th day” value (Hyp male mice [1]; 1 mg/kg daily for 14 days) was “same level as pretreatment”, the “effect on serum alkaline phosphatase levels” value (Hyp male mice [1]; 1 mg/kg daily for 14 days, normal levels 71+/−11 units, Student t test p<0.05) was “significantly reduced toward normal levels” and the “alkaline phosphatase level, 7th day of treatment” value (Hyp male mice [1]; [6]) was 183 units and 235 units and 233 units and 199 units and 246 units. The “alkaline phosphatase level, 14th day of treatment” value (Hyp male mice [1]; [6]) was 196 units (2×) and 208 units and 193 units and 218 units, the “alkaline phosphatase level, pre-treatment” value (Hyp male mice [1]; 1 mg/kg group, individual Hyp mice, 7 day pre-treatment) was 292 units and 357 units and 377 units and 348 units and 323 units and the “salt concentration below which secPHEX precipitated out” value [2] was “less than 50 mM”. For the same molecule, the “effect on serum phosphate” value (Hyp male mice [3]; daily injection over 4 days, as a function of dose, Student t test p<0.05) was “decreased”, the “serum phosphate, Day 0” value (Hyp male mice [3]; dose 1 mg/kg group, 1 mg/kg) was 1.68 and 1.25 and 1.36 and 1.37 and the “serum phosphate, Day 4” value (Hyp male mice [3]; dose 1 mg/kg i.v. daily for 4 days, 1 mg/kg) was 1.23 and 1.06 and 1.18 and 1.31. The “serum phosphate, Day 0” value (Hyp male mice [3]; dose 10 mg/kg group, 10 mg/kg) was 1.16 and 1.12 and 1.39 and 1.14, the “serum phosphate, Day 4” value (Hyp male mice [3]; dose 10 mg/kg i.v. daily for 4 days, 10 mg/kg) was 0.92 and 0.82 and 0.89 and 0.87 and the “pH of maximum activity” value (PTHrP107-139; MES buffer pH 5.0 to 7.0, Tris buffer pH 7.0 to 9.0) was 6.5. For the same molecule, the “cleavage site specificity in PTHrP107-139” value (PTHrP107-139; fragments identified by MALDI-Tof) was “amino-terminus of aspartate residues”.

B2: secPHEXE581V: inactive secPHEX protein bearing the mutation Glu 581 to Val (protein)
chain: B1 extracellular domain with E540V
In the case of B2, the “degradation of PTHrP107-139 (in words)” value (PTHrP107-139; similar conditions as secPHEX, FIG. 3D) is reported as “failed to degrade”.
